What all share (test): purified protein
Holding throughout (conditions): donor substrate; acceptor methyl alpha-D-mannopyranoside

The subject of data set [1] is O=c1ccn([C@@H]2O[C@H](COP(=O)(O)OP(=O)(O)O[C@H]3O[C@H](CO)[C@H](O)[C@H](O)[C@H]3O)[C@@H](O)[C@H]2O)c(=O)[nH]1.
Data set [2] has as its system O=c1ccn([C@@H]2O[C@H](COP(=O)(O)OP(=O)(O)O[C@H]3O[C@@H]([C@H](O)CO)[C@H](O)[C@H]3O)[C@@H](O)[C@H]2O)c(=O)[nH]1.
Data set [3] relates to Nc1nc2c(ncn2[C@@H]2O[C@H](COP(=O)(O)OP(=O)(O)O[C@H]3O[C@H](CO)[C@@H](O)[C@H](O)[C@@H]3O)[C@@H](O)[C@H]2O)c(=O)[nH]1.
The test system of data set [4] is O=c1ccn([C@@H]2O[C@H](CO[P@@](=O)(O)O[P@@](=O)(O)O[C@H]3O[C@H](CO)[C@@H](O)[C@H](O)[C@H]3O)[C@@H](O)[C@H]2O)c(=O)[nH]1.
Data set [5] deals with Nc1nc2c(ncn2[C@@H]2O[C@H](COP(=O)(O)OP(=O)(O)O[C@H]3O[C@H](CO)[C@@H](O)[C@H](O)[C@H]3O)[C@@H](O)[C@H]2O)c(=O)[nH]1.

In the case of LPG1 (Leishmania major), in data set [1], the Km (as a rule, the substrate concentration at which the rate is half of its maximum) was 230 ± 20 µM; the turnover number (kcat) – broadly, the maximal rate divided by the concentration of active sites – came out at 5.33 ± 0.367 s⁻¹; the specificity constant (kcat/Km) (as a rule, the turnover number divided by the Michaelis constant) turned out to be 23300 M⁻¹ s⁻¹. Also, in data set [2], the Km is 70 ± 70 µM, the turnover number (kcat) was found to be 512.5 ± 1.03 s⁻¹ and the kcat/Km was determined as 6.83e+06 M⁻¹ s⁻¹.

In the case of LPG1G (Leishmania major), in data set [1], the Km came to 5 ± 1 µM, the kcat worked out at 2.2 ± 0.167 s⁻¹ and the specificity constant (kcat/Km) turned out to be 466000 M⁻¹ s⁻¹. In addition, in data set [2], the Michaelis-Menten constant (Km) was determined as 30 ± 40 µM, the turnover number (kcat) was 205.9 ± 0.967 s⁻¹ and the catalytic efficiency (kcat/Km) is 6.56e+06 M⁻¹ s⁻¹.

As for LPG1L (Leishmania major), the Michaelis-Menten constant (Km) worked out at 32 ± 5 µM in data set [3]; 6 ± 1 µM in data set [4]; 50 ± 10 µM in data set [1]; 43 ± 5 µM in data set [5]; 20 ± 20 µM in data set [2]. Further, the kcat in data set [3] is 1.43 ± 0.1 s⁻¹; in data set [4], 3.42 ± 0.433 s⁻¹; in data set [1], 7.8 ± 0.833 s⁻¹; in data set [5], 0.4 ± 0.05 s⁻¹; in data set [2], 88.3 ± 1.05 s⁻¹. Moreover, the kcat/Km in data set [3] was determined as 47700 M⁻¹ s⁻¹; in data set [4] it was 578000 M⁻¹ s⁻¹; in data set [1], 165000 M⁻¹ s⁻¹; in data set [5], 8330 M⁻¹ s⁻¹; in data set [2], 4.85e+06 M⁻¹ s⁻¹.

Regarding LPG1R (Leishmania major), in data set [4], the Km turned out to be 38 ± 5 µM, the turnover number (kcat) was 5.05 ± 0.55 s⁻¹ and the kcat/Km was 133000 M⁻¹ s⁻¹. Besides, in data set [2], the Km was determined as 550 ± 680 µM, the catalytic constant (kcat) was determined as 10.6 ± 1.27 s⁻¹ and the kcat/Km came to 19100 M⁻¹ s⁻¹.

The values are drawn from PMC6279836, “The LPG1x family from Leishmania major is constituted of rare eukaryotic galactofuranosyltransferases with unprecedented catalytic properties” (Scientific Reports, 2018).
